The conditions of this series: 25 °C, reversible: Yes, whole UniProt chain shown.
Where [1] appears, read: Bos taurus, pH 7.4, GdnHCl, CD, Tris 20 mM.
The mark [2] stands for this setting: Rattus norvegicus, pH 7.5, Urea, Fluorescence, Sodium phosphate 20 mM, KCl 100 mM.

Where “and” joins values, the source holds several entries; their conditions need not be identical. Identical values can stand only once.

B1: Alpha-lactalbumin wild type, P00711 (protein)
chain: MMSFVSLLLVGILFHATQAEQLTKCEVFRELKDLKGYGGVSLPEWVCTTFHTSGYDTQAIVQNNDSTEYGLFQINNKIWCKDDQNPHSSNICNISCDKFLDDDLTDDIMCVKKILDKVGINYWLAHKALCSEKLDQWLCEKL
Consider B1, for which the denaturant m value by setting is: under setting [1], 1.4 kcal/mol/M; (Bos taurus, pH 7.4, GdnHCl, SUPREX, Sodium phosphate 20 mM) 1.6 kcal/mol/M. Further, the unfolding free energy under setting [1] was 3 kcal/mol.

B2: Fatty acid-binding protein, intestinal wild type, P02693 (protein)
chain: MAFDGTWKVDRNENYEKFMEKMGINVVKRKLGAHDNLKLTITQEGNKFTVKESSNFRNIDVVFELGVDFAYSLADGTELTGTWTMEGNKLVGKFKRVDNGKELIAVREISGNELIQTYTYEGVEAKRIFKKE
Turning to B2, the denaturant m value by setting is: under setting [2], 1.7 kcal/mol/M; (Rattus norvegicus, pH 7.5, Urea, SUPREX, Sodium phosphate 20 mM, KCl 100 mM) 1 kcal/mol/M and 2.7 kcal/mol/M and 0.9 kcal/mol/M. The unfolding free energy under setting [2] was 9.2 kcal/mol.
